Experimental findings from US20240084003A1 (SIMCERE ZAIMING PHARMACEUTICAL, published 2024) are described below.

Test [1] deals with T1, murine CD22 protein (ACROBiosystems, SI2-M52Ha) (murine, UniProt P35329 22-708).
T1 construct: extracellular domain; also called murine CD22-ECD; murine CD22-ECD-His
T1 sequence (looked up): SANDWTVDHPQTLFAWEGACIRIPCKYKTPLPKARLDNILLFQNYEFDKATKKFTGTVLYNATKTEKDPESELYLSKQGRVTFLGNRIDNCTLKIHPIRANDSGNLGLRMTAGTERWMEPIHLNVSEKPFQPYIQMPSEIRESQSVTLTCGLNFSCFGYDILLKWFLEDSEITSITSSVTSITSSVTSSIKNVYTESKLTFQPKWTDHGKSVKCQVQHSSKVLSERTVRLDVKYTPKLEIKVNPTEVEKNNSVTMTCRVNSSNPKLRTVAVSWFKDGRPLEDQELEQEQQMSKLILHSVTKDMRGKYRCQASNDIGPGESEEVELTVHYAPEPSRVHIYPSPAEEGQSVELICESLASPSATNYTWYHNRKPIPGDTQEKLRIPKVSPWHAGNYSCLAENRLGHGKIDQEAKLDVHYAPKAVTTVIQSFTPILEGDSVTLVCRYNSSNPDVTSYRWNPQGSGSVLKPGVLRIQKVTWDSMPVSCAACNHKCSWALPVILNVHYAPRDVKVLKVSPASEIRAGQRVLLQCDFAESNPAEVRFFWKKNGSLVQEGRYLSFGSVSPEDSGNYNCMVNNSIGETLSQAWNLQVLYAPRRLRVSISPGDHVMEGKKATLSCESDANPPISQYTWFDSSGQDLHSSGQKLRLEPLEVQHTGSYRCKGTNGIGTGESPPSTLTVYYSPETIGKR
The test is described as follows: ELISA, coated murine CD22, 0.0001 nM Ab. In outline:
(§1)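 Coat 2 μg/mL CD22 in PBS, overnight 4° C; block PBS/2% BSA 2 h RT. Ab 2 h 37° C; HRP anti-species secondary 2 h 37° C. TMB 30 min RT, stop 1.0 N HCl.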
(ELISA stands for enzyme-linked immunosorbent assay.)

In test [2] the target is T1, murine CD22 protein (ACROBiosystems, …). The test is described as follows: ELISA, coated murine CD22, 0.1 nM Ab. In outline:
as §1

The target is the same in test [3]. Briefly: ELISA, coated murine CD22, 100 nM Ab. In outline:
as §1

For test [4], the target named is T2, human CD22, endogenous on Raji cells (human, UniProt P20273 20-847).
T2 construct: whole, on cells; Endogenous protein of the Raji cell line
T2 sequence (looked up): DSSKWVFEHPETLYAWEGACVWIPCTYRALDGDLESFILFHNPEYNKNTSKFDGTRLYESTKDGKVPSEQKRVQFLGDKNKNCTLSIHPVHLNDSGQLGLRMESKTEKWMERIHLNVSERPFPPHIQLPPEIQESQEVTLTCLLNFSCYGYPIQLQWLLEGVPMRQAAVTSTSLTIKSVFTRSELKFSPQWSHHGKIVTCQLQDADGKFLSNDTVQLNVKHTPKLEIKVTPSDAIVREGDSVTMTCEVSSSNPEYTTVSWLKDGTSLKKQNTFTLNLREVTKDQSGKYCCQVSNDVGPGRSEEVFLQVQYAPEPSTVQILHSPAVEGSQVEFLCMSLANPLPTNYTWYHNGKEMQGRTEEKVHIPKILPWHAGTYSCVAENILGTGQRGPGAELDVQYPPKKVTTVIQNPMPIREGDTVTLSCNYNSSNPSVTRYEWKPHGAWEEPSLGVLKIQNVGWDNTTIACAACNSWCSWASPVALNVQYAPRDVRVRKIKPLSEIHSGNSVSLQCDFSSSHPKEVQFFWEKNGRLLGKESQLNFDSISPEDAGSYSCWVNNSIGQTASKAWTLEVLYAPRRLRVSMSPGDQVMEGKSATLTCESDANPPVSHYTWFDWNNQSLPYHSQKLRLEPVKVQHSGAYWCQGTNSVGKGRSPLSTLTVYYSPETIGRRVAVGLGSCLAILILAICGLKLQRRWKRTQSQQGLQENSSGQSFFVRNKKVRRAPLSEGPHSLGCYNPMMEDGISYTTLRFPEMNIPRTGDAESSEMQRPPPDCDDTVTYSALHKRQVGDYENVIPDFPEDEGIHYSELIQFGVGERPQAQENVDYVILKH
The test is described as follows: FACS, Raji cells. In outline:
(§2)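 Raji cells and CHO-K1 cells expressing human CD22 were blocked in PBS + 2% BSA at 2×10⁶ cells/ml and incubated with chimeric antibody for 2 h on ice. Bound antibody was detected with an Alexa Fluor 488 secondary for 1 h on ice and read by flow cytometry as MFI. EC50 came from curve fitting.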
(In flow cytometry, cells or beads pass a laser one at a time.)

Test [5] concerns the target T1, murine CD22 protein (ACROBiosystems, …). Briefly: ELISA, coated murine CD22, 10 nM Ab. In outline:
as §1

Test [6] has the same target. The test is described as follows: ELISA, coated murine CD22, 0.001 nM Ab. The gist of the method:
as §1

For test [7], the target named is T3, human CD22, full length, on CHO-K1-human CD22 2C4 cells (human, UniProt P20273 20-847).
T3 construct: Full-length human CD22 (NCBI NP_001762.2) stably transfected into CHO-K1
T3 sequence: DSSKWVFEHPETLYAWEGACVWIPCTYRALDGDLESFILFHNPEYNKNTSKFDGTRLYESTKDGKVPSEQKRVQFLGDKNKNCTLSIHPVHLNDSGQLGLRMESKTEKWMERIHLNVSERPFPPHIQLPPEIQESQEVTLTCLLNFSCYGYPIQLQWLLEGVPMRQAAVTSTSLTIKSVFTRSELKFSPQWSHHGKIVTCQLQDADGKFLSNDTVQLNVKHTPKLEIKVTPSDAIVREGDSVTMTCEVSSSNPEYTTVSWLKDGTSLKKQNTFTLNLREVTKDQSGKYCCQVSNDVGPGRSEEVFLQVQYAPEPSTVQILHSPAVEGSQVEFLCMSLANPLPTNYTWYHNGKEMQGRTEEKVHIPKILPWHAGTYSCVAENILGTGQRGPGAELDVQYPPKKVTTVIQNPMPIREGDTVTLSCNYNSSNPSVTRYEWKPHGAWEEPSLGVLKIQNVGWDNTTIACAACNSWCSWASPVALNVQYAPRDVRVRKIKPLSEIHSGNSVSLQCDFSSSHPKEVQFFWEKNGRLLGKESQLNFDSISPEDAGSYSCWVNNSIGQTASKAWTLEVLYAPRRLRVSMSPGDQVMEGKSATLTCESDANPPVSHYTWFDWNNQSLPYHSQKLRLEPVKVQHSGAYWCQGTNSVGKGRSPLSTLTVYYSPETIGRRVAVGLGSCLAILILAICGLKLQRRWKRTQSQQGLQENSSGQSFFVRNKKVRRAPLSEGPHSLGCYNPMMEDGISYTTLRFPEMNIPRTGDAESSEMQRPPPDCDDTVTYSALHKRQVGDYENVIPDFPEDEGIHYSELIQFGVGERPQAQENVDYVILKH
The test is described as follows: FACS, CHO-K1-human CD22 2C4 cells. The gist of the method:
as §2

Test [8] concerns the target T1, murine CD22 protein (ACROBiosystems, …). The test is described as follows: ELISA, coated murine CD22, 0.00001 nM Ab. The gist of the method:
as §1

The target is the same in test [9]. The test is described as follows: ELISA, coated murine CD22, 0.01 nM Ab. The gist of the method: as §1
In test [10] the target is T4, CD22 on cynomolgus monkey peripheral blood B cells (cynomolgus monkey (Macaca fascicularis)).
T4 construct: whole, on cells; also called cynomolgus monkey B cells
The test is described as follows: FACS, cynomolgus PBMC, CD20+ B cells, antibody 10 nM. From the text: (§3) The monkey peripheral blood mononuclear cells were extracted from fresh cynomolgus monkey peripheral blood (purchased from Shanghai Medicilon Inc.) according to the instructions of Ficoll-Paque Plus (purchased from GE Healthcare, catalog number: 171440-02). After the cell suspension was centrifuged, the cells were resuspended in PBS containing 1% BSA, and then the cells were counted. At the same time, the murine antibody Brilliant Violet 605 anti-human CD20 (catalog number: 302334, purchased from Biolegend) with monkey CD20 cross-binding activity and the chimeric antibodies to be tested (1 nM, 10 nM and 100 nM) were added and incubated at room temperature for 1 hour. After washing the cells three times, APC-labeled secondary antibody anti-human IgG Fc (catalog number: 409306, purchased from Biolegend) was added. After incubation at room temperature in the dark for 30 minutes, the cells were washed 5 times, gently resuspended with PBS containing 1% BSA, and detected and analyzed by FACS (FACS Canto™, purchased from BD Company). Wherein CD20 was used as a marker of B cells, and the CD20-positive B cell population was gated, the proportion of chimeric antibody positive cells was analyzed, and the proportion of chimeric antibody positive cell population to B cell population was calculated after treatments with the chimeric antibodies at the concentrations of 100 nM, 10 nM and 1 nM, respectively. The scatter plot of double-stained cells by Brilliant Violet 605-labeled CD20 and APC secondary antibody indirectly labeled chimeric antibody is shown in FIG. 10A-FIG. 10B (under the condition of 1 nM of chimeric antibody concentration).

Test [11] concerns the target T4, CD22 on cynomolgus monkey peripheral …. The test is described as follows: FACS, cynomolgus PBMC, CD20+ B cells, antibody 1 nM.
Text: as §3

Test [12] has the same target. The test is described as follows: FACS, cynomolgus PBMC, CD20+ B cells, antibody 100 nM.
Text: as §3

B1: F1.17.1 human-murine chimeric antibody (antibody, human IgG1, kappa, V domains shown)
VH: QVQLKESGPGLVAPSQSLSITCTVSGFSLSRYTVHWVRQPPGKGLEWLGMIWGGGSTDYNSALKSRLSISKDNSKSQVFLKMNSLQTDDTAMYYCARPHDFDAGGFAYWGQGTLVTVSA
VL: QIVLTQSPAILSTSPGEKVTMTCSASSRVNYMYWYQQKPGSSPRLLIYDTSNLASGVPVRFSGSGSGTSYSLTISRMEAEDAATYYCQQWTSYPLTFGAGTKLELKR
notes: Chimeric, human IgG1 / kappa
One may read the EC50 as the midpoint of the concentration-response curve. In the case of B1, the OD450 was determined as 0.05 OD450 in test [1]; 0.05 OD450 in [2]; 0.07 OD450 in [3]; 0.06 OD450 in test [5]; 0.05 OD450 in [6]; 0.06 OD450 in test [8]. For the same molecule, in test [9], the OD450 was 0.05 OD450. The EC50 came out at 0.17 nM in test [4] and 0.44 nM in test [7]. Also, the “Maximum mean fluorescence intensity” value in [4] came to 28500 MFI; in [7], 36900 MFI.

B2: F1.62.10 human-murine chimeric antibody (antibody, human IgG1, kappa, V domains shown)
VH: QVQLQQSGPELVKPGASVKISCKASGYEFSSIWMNWVKQRPGEGLEWIGRIFPGDGEINYNEKFKGKATLTADRSSTTAYMQLSSLTSEDSAVYFCAGWRIYYGTYGAMDYWGQGTSVTVSS
VL: DIQMTQITSSLSASLGDRVTISCRASQDIGNYLNWYQQKPDGTVKLLIYYTSRLHSGVPSRFSGSGSRTDYSLTISNLQQEDIATYFCQQGNTLPWTFGGGTKLEIKR
notes: Chimeric, human IgG1 / kappa
Regarding B2, the OD450 in [1] came to 0.06 OD450; in test [2] it was 0.05 OD450; in test [3], 0.08 OD450; in [5] it was 0.06 OD450; in [6], 0.05 OD450; in test [8], 0.07 OD450. Besides, the OD450 in test [9] was 0.05 OD450. The EC50 in test [4] is 1.1 nM; in test [7], 1.31 nM. In addition, the “Maximum mean fluorescence intensity” value amounted to 25600 MFI in test [4] and 29200 MFI in test [7].

B3: F2.127.11 (antibody, human IgG1, lambda, V domains shown)
VH: QVTLKESGPGILQPSQTLSLTCSFSGFSLSTFGMGVGWIRQPSGKGLEWLAHIWWDDDKHYNPALKSRLTISKDTSRNQVFLKIANVDTADGATYFCARDNWVSSLDYWGQGTSVIVSS
VL: QPVITQSSSASFSLGASAELTCTLSSQHSTYTIEWYQQQPLKPPKYVMGLKKDGSHSTGDGIPDRFSGSSSGADRYLSISNIQPEDEAIYICGVSDTIKEQFVYVFGGGTKVTVLG
notes: human-murine chimeric IgG1 lambda; VL name legible
For the molecule B3, the “Proportion of chimeric antibody positive cells to B cells (%)” value in test [10] came out at 21%; in test [11], 20%; in test [12] it was 22%.
